# Measured values taken from PMC9424529, “Small molecule mediated inhibition of protein cargo recognition by peroxisomal transport receptor PEX5 is toxic to Trypanosoma” (Scientific Reports, 2022).
# Where no end group is shown, it is not given here. The star is where a group is joined. 6FAM = O=C1OC2(c3ccc(O)cc3Oc3cc(O)ccc32)c2cc(C(=O)*)ccc21
# T1: TPR domain of T. cruzi PEX5 (347–668) (T. cruzi, UniProt Q4DPQ9 347-668)
# T1 construct: PEX5, Trypanosoma cruzi, C-terminal tetratricopeptide repeat (TPR) domain, residues 347-668; codon-optimised synthetic gene in the petHSU vector; The His-SUMO tag was cleaved on the column with dtUD1 protease; also called TcPEX5; TcPEX5 (TPR domain); source: E. coli BL21 (DE3), purified (HiTrap IMAC, on-column tag cleavage, SEC S75); not shown: His6, N-terminal, cleaved
# T1 sequence (looked up): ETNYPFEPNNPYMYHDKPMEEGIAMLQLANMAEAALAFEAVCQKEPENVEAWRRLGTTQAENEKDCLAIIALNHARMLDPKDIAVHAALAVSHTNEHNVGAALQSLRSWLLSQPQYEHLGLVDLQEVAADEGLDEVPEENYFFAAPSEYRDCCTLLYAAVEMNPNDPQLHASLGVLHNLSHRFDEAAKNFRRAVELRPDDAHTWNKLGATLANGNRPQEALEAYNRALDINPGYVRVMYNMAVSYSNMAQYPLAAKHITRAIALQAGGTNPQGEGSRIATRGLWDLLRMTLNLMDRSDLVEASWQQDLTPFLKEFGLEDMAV
# Assays:
# [1] = target: T1, TPR domain of T. cruzi PEX5 (347–668); assay: fluorescence polarisation; competitive: increasing unlabeled PTS1 added to 30 nM TcPEX5 (f0 = 0.8) and 10 nM 6-FAM-PTS1; Ki by curve fitting; details: both partners purified
# [2] = target: T1, TPR domain of T. cruzi PEX5 (347–668); assay: fluorescence polarisation; saturation binding: 10 nM 6-FAM-PTS1 titrated with TcPEX5 (0.1–250 nM); 10 mM Hepes pH 7.5, 100 mM NaCl, 5% DMSO; one-site fit; details: both partners purified
binder,measurement,setting,value
"YQSKL (pentapeptide representing PTS1, without the label; also called PTS1 alone; unlabeled PTS peptide) [unlabeled PTS1 peptide]",Ki,[1],126 nM
6FAM-YQSKL (pentapeptide representing peroxisomal targeting signal 1 (PTS1); also called 6-FAM-PTS1; FAM-PTS1) [6-FAM-labelled PTS1 (6-FAM-YQSKL)],Kd,[2],21 nM
